Measured values from paper PMC3751641, “Mena/VASP and αII-Spectrin complexes regulate cytoplasmic actin networks in cardiomyocytes and protect from conduction abnormalities and dilated cardiomyopathy” (Cell Communication and Signaling : CCS, 2013).

Columns and labels:
[1] = target: T1, SH3i, αII-Spectrin splice variant, endogenous in adult mouse heart (mouse (endogenous in mouse heart), UniProt P16546 1-2472); experiment: co-IP; adult mouse heart lysate incubated with 5 μg purified anti-Mena, anti-αII-Spectrin or anti-SH3i antibodies, then protein A-sepharose; washed in lysis buffer; Western blot; GST-specific antibodies as control; conditions: partners not purified
T1 construct: source: endogenous, adult mouse heart lysate

[2] = target: T2, GST-α9A (α9 repeat of the αII-Spectrin splice variant SH3i, with the alternatively spliced 20 amino acids) (mouse, UniProt P16546 893-1088); experiment: pull-down; 5 μg GST or equimolar GST-fusion proteins immobilised on glutathione sepharose, incubated with cleared adult mouse heart lysate (40 mM Hepes-NaOH pH 7.4, 75 mM NaCl, 1% NP40, protease inhibitors); blot with anti-Mena; conditions: one partner purified
T2 construct: mouse αII-Spectrin, splice variant SH3i (protein ID AAI50942), amino acids Q893-E1088: the α9 repeat with the SH3 domain and the 20-residue insert T1053-L1072; numbers count on: SH3i, AAI50942; cDNA subcloned into the pGEX-6P2 vector

fold more Mena precipitated than by general αII-Spectrin-specific antibodies [1]: 8 fold
fold more Mena precipitated than by α9 or SH3 [2]: ≥ 10 fold
B1: Mena (mammalian Enabled) (natural protein, mouse (endogenous in mouse heart), UniProt Q03173-3 1-541, looked up)
chain: MSEQSICQARAAVMVYDDANKKWVPAGGSTGFSRVHIYHHTGNNTFRVVGRKIQDHQVVINCAIPKGLKYNQATQTFHQWRDARQVYGLNFGSKEDANVFASAMMHALEVLNSQEAGPTLPRQNSQLPAQVQNGPSQEELEIQRRQLQEQQRQKELERERMERERLERERLERERLERERLEQEQLERQRQEREHVERLERERLERLERERQERERERLEQLEREQVEWERERRMSNAAAPASAETPLNPELGDSSASEPGLQAASQPAESPTPQGLVLGPPAPPPPPPLPSGPAYASALPPPPGPPPPPPLPSTGPPPPPPPPPPLPNQAPPPPPPPPAPPLPASGIFSGSTSEDNRPLTGLAAAIAGAKLRKVSRVEDGSFPGGGNTGSVSLASSKADAGRGNGPLPLGGSGLMEEMSALLARRRRIAEKGSTIETEQKEDRNEDAEPITAKAPSTSTPEPTRKPWERTNTMNGSKSPVISRPKSTPSSQPSANGVQTEGLDYDRLKQDILDEMRKELAKLKEELIDAIRQELSKSNTA
notes: mouse Mena, endogenous; two isoforms exist in the mouse heart, the general one (~80 kDa, 541 aa) and the neuronal splice variant (~140 kDa); source: endogenous, adult mouse heart lysate
